1 sequence from article PMC8552724 can be followed below.

The test system of the series is T1, AbrB (Bacillus thuringiensis (HD73?)), ORF:5acdf31f.
T1 sequence: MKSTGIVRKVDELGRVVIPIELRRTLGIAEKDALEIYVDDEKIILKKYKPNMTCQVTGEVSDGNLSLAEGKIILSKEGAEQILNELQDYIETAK
Description: EMSA. (In general: A gel shift assay detects complexes by their altered migration in electrophoresis.)

On to “CATCCGTTAAAGGAAGCATGAATTAGTAATGAATTTGCAATTTCGATAAAAGTTTGTAATATTTCATTTTATGGACATACTTCATCTAGATCACTTTGTAATAGAATATTTCCTTTTATATACAATTAAACCACATTTATCCTTCGTGAAATGTTTATATATTAAATAATATAAAAAAATATAGGGTGTTATAATTAATTCGAAAACGTTTACAAAAAGAATGATGGAGGGATAATT (double strand) [Psip1Ab1-S (-201 to +36)]”, for which the binding result is “binds”.
